Results published in patent US8637043B2, “Compositions useful as ligands for the formyl peptide receptor like 1 receptor and methods of use thereof” (Chemocentryx, Inc., priority 2001, dated 2014).
Where “and” joins values, the source holds several entries; their conditions need not be identical. Equal values may be shown once.

Key:
[1] = system: infiltrating cells; assay: Immunohistochemistry of infiltrating cells in injected skin samples; type: in vivo, Rhesus macaques; settings: injected skin samples of Example 14
Description: To better define the identity of the infiltrating cells seen in Example 14 (Table 18), the same samples were analyzed by immunohistochemistry using antibodies specific for different cell types. These antibodies included: CD68 (expressed on macrophages, neutrophils and dendritic cells), MHC II (antigen-presenting cells, e.g. macrophages and dendritic cells), HAM-56 (macrophages), fascin (dendritic cells, endothelial cells and epithelial cells), elastase (neutrophils), cytokeratin (epithelial cells), CD3 (T cells), CD20 (B cells), and CD1a (Langerhans cells).

[2] = system: dendritic cells; assay: Dendritic cell infiltration after intradermal injection in mice (anti-DEC-205 staining); type: in vivo; set-up: key to Dendritic cell infiltration Score / Infiltration Score: 0 = none, 1 = slight, 2 = mild, 3 = moderate, 4 = severe
Source text: The following chemokines were obtained from R&D Systems (Minneapolis, Minn.): vMCK-2, mC10, and GM-CSF. The following peptides were synthesized at Phoenix Pharmaceuticals (San Carlos, Calif.): SHAAYtide (SEQ ID NO:6), several […] MODIFIED peptides of SHAAGtide variant (SEQ ID NO:) (i.e. cyclized using the MPR-Cys linked cyclization), control peptide (SEQ ID NO:33, […]Gin Pro Gly lie Lys Arg Arg Trp Leu Met), randomly conjugated to OVA in either a 1:1 or 1:4 ratio (by MBS coupling method), and conjugated to OVA at the C-terminus (C-term, made by the addition of a cysteine), and SHAAGtide variant (SEQ ID NO:3). In three separate experiments, chemokines or peptides (2 μg or 20 μg in PBS) were injected intradermally into BALB/c or C57BI/6 mice (Jackson Laboratory; Bar Harbor, Me.). In each experiment, one mouse received an injection of PBS only as a negative control. At various times after injection, the mice were euthanized, and the area around the injection site was excised and subjected to immunohistology. Frozen sections were stained with anti-DEC-205 antibody (Bio-Whittaker Molecular Applications; Rockland, Me.) that recognizes a dendritic cell-specific molecule (Kraal et al., 1986). A relative staining number on a scale of […] was assigned to each section (0, none; 1, slight; 2, mild; 3, moderate; 4, severe).

[3] = system: mononuclear cells; assay: Mononuclear cell infiltration into the dermis after intradermal injection; type: in vivo, Rhesus macaques
Description: Different amounts (8, 20, or 60 μg in 100 μl PBS) of different polypeptides (see Table 18) were injected intradermally in Rhesus macaques under anesthesia. Twenty-four and 48 hours later, 6 mm skin punch biopsies were taken using aseptic technique and then bisected. One portion of the biopsy was embedded in OCT compound, flash frozen in liquid nitrogen and stored at −70° C. The other portion was immersed in formalin and embedded in paraffin wax; subsequently, sections cut on a microtome were stained with hematoxylin and eosin and then microscopically examined for cell infiltration into the dermis (Table 18). As a negative control, monkeys were injected with PBS lacking any polypeptides.
Mononuclear cell infiltration was scored on a scale of 0 to 5:0, very mild perivascular mononuclear inflammatory infiltration throughout the dermis; 1, a mild perivascular mononuclear inflammatory infiltrate seen throughout the dermis; 2, a mild/moderate perivascular mononuclear inflammatory infiltrate seen throughout the dermis; 3, a moderate perivascular mononuclear inflammatory infiltrate seen throughout the dermis; 4, an extensive perivascular mononuclear inflammatory infiltrate seen throughout the dermis; 5, a florid perivascular mononuclear inflammatory infiltrate seen throughout the dermis. intermediate scores are indicates, e.g., “⅔” represents a score between 2 and 3.

B1: mC10: chemokine obtained from R&D Systems (protein, UniProt P27784 22-116, looked up)
C-C motif chemokine 6: GLIQEMEKEDRRYNPPIIHQGFQDTSSDCCFSYATQIPCKRFIYYFPTSGGCIKPGIIFISRRGTQVCADPSDRRVQRCLSTLKQGPRSGNKVIA
[1]
  identity of infiltrating cells: primarily antigen-presenting cells, including macrophages and dendritic cells, but few neutrophils
[2]; BALBc mice, 2 μg, 6 hours
  Dendritic cell infiltration Score: 2
[2]; BALBc mice, 2 μg, 30 hours
  Dendritic cell infiltration Score: 3 and 2
[2]; BALBc mice, 20 μg, 6 hours
  Dendritic cell infiltration Score: 2
[2]; C57B1/6 mice, 2 μg dose, 6 hours, 0 none, 1 slight, 2 mild, 3 moderate, 4 severe, one animal per line
  Dendritic cell infiltration Score: 1 (2×) and 2
[2]; C57B1/6 mice, 2 μg dose, 30 hours
  Dendritic cell infiltration Score: 2 and 1
[2]; C57B1/6 mice, 2 μg dose, 51 hours
  Dendritic cell infiltration Score: 0
[2]; summary of Tables 15, 16 and 17
  infiltration of DEC-205-labeled cells: excellent infiltration
[3]; 8 μg, 24 hours
  Mononuclear cell infiltration score: 1
[3]; 8 μg, 48 hours
  Mononuclear cell infiltration score: 0
[3]; 20 μg, 24 hours
  Mononuclear cell infiltration score: 0
[3]; 20 μg, 48 hours
  Mononuclear cell infiltration score: 0
[3]; 60 μg intradermally, 24 hours, scale 0 (very mild) to 5 (florid)
  Mononuclear cell infiltration score: 0
[3]; 60 μg, 48 hours
  Mononuclear cell infiltration score: 0
[3]; summary of Table 18
  cell infiltration, in words: little to no infiltration
